From patent US20160252527A1 (Takeda / Millennium, published 2016) come the findings set out here.

Experiment [1] concerns the target cynomolgus monkey plasma kallikrein (pKal) (cynomolgus monkey). Kind of experiment: cell-based or functional assay.
Experiment [2] addresses human plasma kallikrein (pKal) (human, UniProt P03952 20-638). Kind of experiment: cell-based or functional assay.

Chain of human plasma kallikrein (pKal) (P03952 20-638 limits assumed): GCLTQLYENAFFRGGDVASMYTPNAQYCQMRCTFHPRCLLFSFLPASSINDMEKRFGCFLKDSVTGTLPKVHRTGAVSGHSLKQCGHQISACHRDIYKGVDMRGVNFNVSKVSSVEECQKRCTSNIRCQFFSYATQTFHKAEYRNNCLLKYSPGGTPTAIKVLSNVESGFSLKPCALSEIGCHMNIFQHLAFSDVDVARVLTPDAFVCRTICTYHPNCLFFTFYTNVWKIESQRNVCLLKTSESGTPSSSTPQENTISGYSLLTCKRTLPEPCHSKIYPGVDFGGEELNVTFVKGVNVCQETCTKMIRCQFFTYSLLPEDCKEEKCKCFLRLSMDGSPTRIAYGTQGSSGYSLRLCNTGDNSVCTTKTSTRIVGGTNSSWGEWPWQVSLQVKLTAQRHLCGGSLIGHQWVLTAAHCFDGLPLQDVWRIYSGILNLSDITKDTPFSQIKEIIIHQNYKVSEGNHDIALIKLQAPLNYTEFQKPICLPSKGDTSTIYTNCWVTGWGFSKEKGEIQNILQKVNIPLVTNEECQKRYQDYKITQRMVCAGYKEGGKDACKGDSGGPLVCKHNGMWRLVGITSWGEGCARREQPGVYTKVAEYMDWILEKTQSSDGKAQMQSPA
Chain of cynomolgus monkey plasma kallikrein (pKal) (cynomolgus monkey) (chain, as listed by the source): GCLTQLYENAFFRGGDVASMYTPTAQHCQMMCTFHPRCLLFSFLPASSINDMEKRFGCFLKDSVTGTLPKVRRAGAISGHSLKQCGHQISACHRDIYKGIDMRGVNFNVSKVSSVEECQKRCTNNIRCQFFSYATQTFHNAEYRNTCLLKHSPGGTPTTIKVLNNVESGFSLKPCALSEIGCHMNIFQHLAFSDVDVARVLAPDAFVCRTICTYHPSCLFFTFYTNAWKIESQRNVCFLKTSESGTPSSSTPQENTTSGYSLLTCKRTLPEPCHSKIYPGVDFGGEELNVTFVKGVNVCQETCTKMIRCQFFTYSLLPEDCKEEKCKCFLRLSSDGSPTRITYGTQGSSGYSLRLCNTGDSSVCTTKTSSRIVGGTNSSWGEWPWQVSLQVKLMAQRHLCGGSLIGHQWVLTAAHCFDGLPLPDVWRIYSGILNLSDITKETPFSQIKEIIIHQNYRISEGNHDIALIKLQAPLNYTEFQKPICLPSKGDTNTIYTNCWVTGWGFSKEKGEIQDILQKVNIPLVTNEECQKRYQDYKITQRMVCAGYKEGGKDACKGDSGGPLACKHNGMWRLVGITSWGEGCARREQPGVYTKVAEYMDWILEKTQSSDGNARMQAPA

B1: DX-2930 (antibody, INN chains, looked up, V domains shown)
VH: EVQLLESGGGLVQPGGSLRLSCAASGFTFSHYIMMWVRQAPGKGLEWVSGIYSSGGITVYADSVKGRFTISRDNSKNTLYLQMNSLRAEDTAVYYCAYRRIGVPRRDEFDIWGQGTMVTVSS
VL: DIQMTQSPSTLSASVGDRVTITCRASQSISSWLAWYQQKPGKAPKLLIYKASTLESGVPSRFSGSGSGTEFTLTISSLQPDDFATYYCQQYNTYWTFGQGTKVEIK
In experiment [1], B1 returned a percent inhibition of pKal activity (Pro-Phe-Arg-AMC substrate) after ex vivo FXIIa activation of plasma of a dosed monkey, drug level ~265 nM of 80%. In experiment [2], this molecule displayed a % Reduction of one-chain HMWK (XIIa activated plasma, 9 nM DX2930; Protein Simple Western) of 92.1%; a % Reduction of one-chain HMWK (XIIa activated plasma, 27 nM DX2930; Protein Simple Western) of 90.4%; a % Reduction of one-chain HMWK (XIIa activated plasma, 80 nM DX2930; Protein Simple Western) of 79%; a % Reduction of one-chain HMWK (XIIa activated plasma, 240 nM DX2930; Protein Simple Western) of 63.9%. Besides, in experiment [2], the % Reduction of one-chain HMWK (XIIa activated plasma, 480 nM DX2930; Protein Simple Western) came to 54.9%; the Area of the one-chain HMWK peak (XIIa activated plasma, 9 nM DX2930; Protein Simple Western) was 842; the Area of the one-chain HMWK peak (XIIa activated plasma, 27 nM DX2930; Protein Simple Western) is 1030; the Area of the one-chain HMWK peak (XIIa activated plasma, 80 nM DX2930; Protein Simple Western) was 2230. In experiment [2], this molecule returned an Area of the one-chain HMWK peak (XIIa activated plasma, 240 nM DX2930; Protein Simple Western) of 3840; an Area of the one-chain HMWK peak (XIIa activated plasma, 480 nM DX2930; Protein Simple Western) of 4800; a maximal inhibition of pKal activity (PFR-AMC substrate), plasma of dose group 3 (1.0 mg/kg DX-2930) of 19%; a maximal inhibition of pKal activity (PFR-AMC substrate), plasma of dose group 4 (3.0 mg/kg DX-2930) of 36%.

B2: alpha 2 macroglobulin (α2M) (other, UniProt P01023 24-1474, looked up)
chain: SVSGKPQYMVLVPSLLHTETTEKGCVLLSYLNETVTVSASLESVRGNRSLFTDLEAENDVLHCVAFAVPKSSSNEEVMFLTVQVKGPTQEFKKRTTVMVKNEDSLVFVQTDKSIYKPGQTVKFRVVSMDENFHPLNELIPLVYIQDPKGNRIAQWQSFQLEGGLKQFSFPLSSEPFQGSYKVVVQKKSGGRTEHPFTVEEFVLPKFEVQVTVPKIITILEEEMNVSVCGLYTYGKPVPGHVTVSICRKYSDASDCHGEDSQAFCEKFSGQLNSHGCFYQQVKTKVFQLKRKEYEMKLHTEAQIQEEGTVVELTGRQSSEITRTITKLSFVKVDSHFRQGIPFFGQVRLVDGKGVPIPNKVIFIRGNEANYYSNATTDEHGLVQFSINTTNVMGTSLTVRVNYKDRSPCYGYQWVSEEHEEAHHTAYLVFSPSKSFVHLEPMSHELPCGHTQTVQAHYILNGGTLLGLKKLSFYYLIMAKGGIVRTGTHGLLVKQEDMKGHFSISIPVKSDIAPVARLLIYAVLPTGDVIGDSAKYDVENCLANKVDLSFSPSQSLPASHAHLRVTAAPQSVCALRAVDQSVLLMKPDAELSASSVYNLLPEKDLTGFPGPLNDQDNEDCINRHNVYINGITYTPVSSTNEKDMYSFLEDMGLKAFTNSKIRKPKMCPQLQQYEMHGPEGLRVGFYESDVMGRGHARLVHVEEPHTETVRKYFPETWIWDLVVVNSAGVAEVGVTVPDTITEWKAGAFCLSEDAGLGISSTASLRAFQPFFVELTMPYSVIRGEAFTLKATVLNYLPKCIRVSVQLEASPAFLAVPVEKEQAPHCICANGRQTVSWAVTPKSLGNVNFTVSAEALESQELCGTEVPSVPEHGRKDTVIKPLLVEPEGLEKETTFNSLLCPSGGEVSEELSLKLPPNVVEESARASVSVLGDILGSAMQNTQNLLQMPYGCGEQNMVLFAPNIYVLDYLNETQQLTPEIKSKAIGYLNTGYQRQLNYKHYDGSYSTFGERYGRNQGNTWLTAFVLKTFAQARAYIFIDEAHITQALIWLSQRQKDNGCFRSSGSLLNNAIKGGVEDEVTLSAYITIALLEIPLTVTHPVVRNALFCLESAWKTAQEGDHGSHVYTKALLAYAFALAGNQDKRKEVLKSLNEEAVKKDNSVHWERPQKPKAPVGHFYEPQAPSAEVEMTSYVLLAYLTAQPAPTSEDLTSATNIVKWITKQQNAQGGFSSTQDTVVALHALSKYGAATFTRTGKAAQVTIQSSGTFSSKFQVDNNNRLLLQQVSLPELPGEYSMKVTGEGCVYLQTSLKYNILPEKEEFPFALGVQTLPQTCDEPKAHTSFQISLSVSYTGSRSASNMAIVDVKMVSGFIPLKPTVKMLERSNHVSRTEVSSNHVLIYLDKVSNQTLSLFFTVLQDVPVRDLKPAIVKVYDYYETDEFAIAEYNAPCSKDLGNA
B2: the “IC50 (read off the curve)” value in experiment [2] was approximately 400 nM.
